Measured values from patent publication US8258279B2, “Isolated nucleic acids encoding soluble corticotropin releasing factor receptor type 2 (sCRFR2) polypeptides” (Research Development Foundation, priority 2005, dated 2012).
Entries after “also recorded” stand apart in the source; their conditions may differ.

Columns and labels:
[1] = tested on: anti-sCRFR2α serum; assay: Immunohistochemistry, specificity by preincubation of antiserum with synthetic immunogen; details: mouse brain sections; antiserum preincubated with immunogen
Description: Immunohistochemistry. Adult male C57B6J mice (Jackson Laboratories) and Sprague-Dawley albino rats (Harlan Sprague-Dawley) were anesthetized with chloral hydrate (350 mg/kg, ip) and perfused with Zamboni's fixative (Bittencourt et al., 1999), followed by 0-4 hr. post-fixation. Regularly spaced (1-in-4) series of 30 μm thick frontal sections throughout the brain were prepared for nickel-enhanced avidin-biotin-immunoperoxidase localization of sCRFR2α-ir using Vectastain Elite reagents (Vector Laboratories, Burlingame, Calif.). Primary sCRFR2α antisera were adsorbed against the carrier, affinity purified and used at a dilution of 1:2000. Specificity of immunostaining was evaluated using primary antisera preincubated overnight at 4° C. with 0-300 μM synthetic immunogen. Labeling was also evaluated in mutant mice deficient in either or both CRFRs (Smith et al., 1998; Bale et al. 2000). Detailed description of the fluorescence immunocytochemical analysis of COSM6 cells transfected with sCRFR2α can be found in the supporting text.
Further support for the specificity of labeling are observations that all immunolocalizations persisted in CRFR1- and/or CRFR2-deleted mice; note that the targeting construct used for generating each of the existing receptor-knockout lines would be expected to spare the sCRFR2α coding region (Smith et al., 1998; Timpl et al., 1998; Bale et al., 2000).

[2] = molecular target: T1, Astressin (Mus musculus, UniProt Q60748); assay: Radioreceptor assay, competitive displacement of [125I-DTyr0]-astressin bound to sCRFR2α; type: binding; details: range in parentheses in the next cell
T1 construct: A cDNA corresponding to amino acids 20-143 was generated by PCR; made in house; host or cells: E. coli
Description: (§1) Radioreceptor assays. The soluble protein, purified either from COS M6 cell media or E. coli was incubated in triplicate wells with [^125I-DTyr^O]-astressin and increasing concentration of unlabeled peptides as described (Perrin et al., 2003).
(§2) The interactions of the sCRFR2α with CRF family ligands were assessed by radioreceptor assay using competitive displacement of [^125I-D Tyr^o]-astressin bound to sCRFR2α.

[3] = molecular target: T2, CRF (Mus musculus, UniProt Q60748); assay: as above; type: binding; details: range in parentheses in the next cell
T2 construct: A cDNA corresponding to amino acids 20-143 was generated by PCR; made in house; host or cells: E. coli
Description: as §1, §2

[4] = molecular target: T3, mUcn2 (Mus musculus, UniProt Q60748); assay: as above; type: binding; details: range in parentheses
T3 construct: A cDNA corresponding to amino acids 20-143 was generated by PCR; made in house; host or cells: E. coli
Description: as §1, §2

[5] = molecular target: T4, mUcn3 (Mus musculus, UniProt Q60748); assay: as above; type: binding
T4 construct: A cDNA corresponding to amino acids 20-143 was generated by PCR; made in house; host or cells: E. coli
Description: as §1, §2

[6] = molecular target: T5, rUcn1 (Mus musculus, UniProt Q60748); assay: as above; type: binding; details: range in parentheses in the next cell
T5 construct: A cDNA corresponding to amino acids 20-143 was generated by PCR; made in house; host or cells: E. coli
Description: as §1, §2

[7] = tested on: cAMP response to Ucn 1 and CRF in HEK293T cells transfected with mouse CRFR2α; assay: CRE-luciferase reporter (EVX1) assay of the cAMP response; type: cell-based; details: 4 h, 0.0001-100 nM Ucn 1 or CRF, 0.1 nM sCRFR2α
Description: (§3) Luciferase reporter containing a fragment of the CRE promoter of the EVX1 gene was cotransfected into 293T cells with CRFR2α expression vectors. Luciferase activity was measured following treatment (4 h) with 0.0001-100 nM Ucn 1 or CRF, in the presence or absence of 0.1 nM sCRFR2α. Assays were normalized to cotransfected β-galactosidase activity. The representative means of six replicates from one experiment is shown in the graph. FIG. 5B, Equilibrated CATH.a cells were treated with Ucn 1 (10 nM) with or without sCRFR2α (0.4 or 4 nM). After 5 min of receptor stimulation, cell lysates were harvested and subjected to SDS-PAGE immunoblot analysis using phospho-ERK1/2-p42, 44 antibody and ERK2-p44 antibody. The ERK activation was calculated by normalizing the levels of phosphorylated ERK1/2-p42, 44 to total ERK2-p44. The representative of means of triplicates from one experiment is shown in the graph. *, P<0.05 vs. vehicle treatment, #, P<0.05 vs. Ucn 1 treatment, UD=undetected.
Transient transfections and luciferase assay. […]
(§4) To delineate the possible functions of sCRFR2α, the inventors studied its effects on signaling by CRF family ligands. […] Because the urocortins activate MAPK signaling (Brar et al., 2002), the inventors measured the ability of sCRFR2α to inhibit the activation by Ucn 1 of ERK1/2-p42, 44 in CATH.a cells, which endogenously express CRFR1 and CRFR2α.

[8] = tested on: activation by Ucn 1 of ERK1/2-p42, 44 in CATH.a cells; assay: Extracellular receptor kinase 1/2 (ERK1/2) assay; type: cell-based; details: Ucn 1 10 nM, sCRFR2α 0.4 or 4 nM, 5 min
Description: as §3, with “The representative of means of triplicates from one experiment is shown in the graph. *, P<0.05 vs. vehicle treatment, #, P<0.05 vs. Ucn 1 treatment, UD=undetected.” left out
Extracellular receptor kinase 1/2 (ERK1/2) assay. […] Cells were harvested immediately and analyzed for phosphorylated ERK1/2-p42, 44, as previously described (Chen et al., 2005).
as §4

[9] = tested on: rabbit anti-sCRFR2α (aa 113-143); assay: sCRFR2α radioimmunoassay (RIA); type: binding; details: anti-sCRFR2α at 1/300,000; synthetic sCRFR2α (113-143) as standard
Excerpt: FIGS. 3A-3C. A highly specific antiserum raised in rabbit using a synthetic peptide fragment encoding the unique C-terminal tail of mouse sCRFR2α protein (aa 113-143) was used to develop a sCRFR2α radioimmunoassay, used for immunoblot analysis and for immunocytochemistry. FIG. 3A is a western immunoblot of mouse sCRFR2α isolated from the medium of COS-M6 cells transiently transfected with sCRFR2αFLAG construct reacted with anti-sCRFR2α-(113-143) serum (left panel) or monoclonal M2 anti-FLAG (right panel). Lanes 1, 2, and 3 correspond to 0.1, 1.0, and 10 μl of sCRFR2α-FLAG extract, respectively. FIG. 3B, Displacement of [^125I]Tyr^113 sCRFR2α (aa 113-143) binding to rabbit anti-sCRFR2α (aa113-143) by synthetic sCRFR2α (aa 113-143) and by purified COS-M6 expressed sCRFR2α (aa 113-143)-FLAG. FIG. 3C, Immunofluorescence staining of COS-M6 cells transiently transfected with mouse sCRFR2α construct visualized with the anti-sCRFR2α (aa 113-143) serum followed by a Cy3-conjugated secondary antibody (FIG. 3C(b)). The slides were counterstained with DAPI to visualize both transfected and non transfected cells (FIG. 3C(a)).
Radio-Immuno Assays (RIA). […]

| Molecule | concentration blocking immunolabeling throughout the brain on pre-incubation of the antiserum [1] [µM] | Inhibitory binding constants, Ki, Astressin [2] | Inhibitory binding constants, Ki, CRF [3] | Inhibitory binding constants, Ki, mUcn2 [4] | Inhibitory binding constants, Ki, mUcn3 [5] | Inhibitory binding constants, Ki, rUcn1 [6] | inhibition of the cAMP response to Ucn 1 and CRF (CRE luciferase activity) [7] | inhibition of induction of phosphorylated ERK by Ucn 1 [8] | EC50 in sCRFR2α RIA [9] [pg per tube] |
| --- | --- | --- | --- | --- | --- | --- | --- | --- | --- |
| sCRFR2α (113-143): synthetic peptide fragment encoding the unique C-terminal tail (aa 113-143) of mouse sCRFR2α, used as immunogen and RIA standard (YRIALIVNYLGHCVSVVALVAAFLLFLVLRS; soluble splice isoform sCRFR2alpha; UniProt Q60748 113-143, looked up, fragment) | ≥ 30 |  |  |  |  |  |  |  |  |
| sCRFR2α: 143 amino acid soluble splice variant of mouse CRF receptor type 2α lacking exon six (protein) MDAALLLSLLEAQLQPGAGRRAAPGRLGSAPGPRRSLHLLQHDLGPDRDLLATERTRSPSRETVPRVLQWHQVQHDPECLQRVPGERDLGLKGQLLTLRTHFG |  | nanomolar affinities | nanomolar affinities | much lower | much lower | nanomolar affinities | inhibit, in a dose dependent manner; also recorded: interferes with the induction of cAMP | inhibits the induction of phosphorylated ERK; also recorded: interferes with the induction | ~5 |
